Measurements taken from the supplement of paper PMC9112550, “Optimization of the antimicrobial peptide Bac7 by deep mutational scanning” (BMC Biology, 2022).

System: Escherichia coli TOP10
Test: shrunken log2 fold change of peptide-encoding DNA abundance (4.5 h post-induction vs induction); higher = less antimicrobial activity (less host growth inhibition)
Settings: time post-induction: 4.5 h; library: site-saturation at positions 5, 18, 19, 20
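Also: peptides expressed intracellularly from a pBAD plasmid library in pooled LB shake-flask culture, induced with 0.3% L-arabinose, DNA abundance read by NGS, three biological replicates, DESeq2 with apeglm shrinkage.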

Sequence | shrunken log2 fold change
RRIRSRPPRLPRPRPRPRWSPRP | 0.122
RRIRSRPPRLPRPRPRPRYCPRP | -0.483
RRIRSRPPRLPRPRPRPSACPRP | -0.0945
RRIRSRPPRLPRPRPRPSAEPRP | 0.567
RRIRSRPPRLPRPRPRPSCSPRP | -0.231
RRIRSRPPRLPRPRPRPSDDPRP | -0.274
RRIRSRPPRLPRPRPRPSDNPRP | -0.249
RRIRSRPPRLPRPRPRPSDYPRP | -0.87
RRIRSRPPRLPRPRPRPSITPRP | -0.392
RRIRSRPPRLPRPRPRPSLDPRP | -0.0696
RRIRSRPPRLPRPRPRPSMDPRP | -0.514
RRIRSRPPRLPRPRPRPSRVPRP | 0.107
RRIRSRPPRLPRPRPRPSVDPRP | 0.0566
RRIRSRPPRLPRPRPRPSVSPRP | -0.0446
RRIRSRPPRLPRPRPRPTARPRP | 0.44
RRIRSRPPRLPRPRPRPTDYPRP | -0.66
RRIRSRPPRLPRPRPRPTFKPRP | -0.0617
RRIRSRPPRLPRPRPRPTGTPRP | -0.0039
RRIRSRPPRLPRPRPRPTHGPRP | 0.28
RRIRSRPPRLPRPRPRPTHSPRP | 0.186
RRIRSRPPRLPRPRPRPTIIPRP | -0.35
RRIRSRPPRLPRPRPRPTLGPRP | 0.378
RRIRSRPPRLPRPRPRPTLKPRP | -0.139
RRIRSRPPRLPRPRPRPTNHPRP | -0.344
RRIRSRPPRLPRPRPRPTPFPRP | -0.0055

Sequence | shrunken log2 fold change
RRIRSRPPRLPRPRPRPTPQPRP | 0.388
RRIRSRPPRLPRPRPRPTRWPRP | 0.721
RRIRSRPPRLPRPRPRPTSDPRP | -0.00252
RRIRSRPPRLPRPRPRPTSNPRP | 0.133
RRIRSRPPRLPRPRPRPTSVPRP | 0.00616
RRIRSRPPRLPRPRPRPTTEPRP | 0.014
RRIRSRPPRLPRPRPRPTVNPRP | -0.477
RRIRSRPPRLPRPRPRPTVRPRP | -0.00791
RRIRSRPPRLPRPRPRPTWLPRP | 0.455
RRIRSRPPRLPRPRPRPTYFPRP | -0.563
RRIRSRPPRLPRPRPRPVAMPRP | 0.0384
RRIRSRPPRLPRPRPRPVAVPRP | 0.0198
RRIRSRPPRLPRPRPRPVAWPRP | 0.0469
RRIRSRPPRLPRPRPRPVCTPRP | -0.0518
RRIRSRPPRLPRPRPRPVDLPRP | -0.199
RRIRSRPPRLPRPRPRPVEFPRP | -0.928
RRIRSRPPRLPRPRPRPVGWPRP | 0.839
RRIRSRPPRLPRPRPRPVHMPRP | -0.322
RRIRSRPPRLPRPRPRPVKDPRP | -0.315
RRIRSRPPRLPRPRPRPVKIPRP | -0.131
RRIRSRPPRLPRPRPRPVMVPRP | -0.31
RRIRSRPPRLPRPRPRPVMWPRP | 0.459
RRIRSRPPRLPRPRPRPVNDPRP | -0.389
RRIRSRPPRLPRPRPRPVNIPRP | -0.261
RRIRSRPPRLPRPRPRPVPDPRP | -0.0298

Sequence | shrunken log2 fold change
RRIRSRPPRLPRPRPRPVPKPRP | 0.232
RRIRSRPPRLPRPRPRPVQEPRP | 0.403
RRIRSRPPRLPRPRPRPVSDPRP | 0.32
RRIRSRPPRLPRPRPRPVTFPRP | -0.21
RRIRSRPPRLPRPRPRPVTWPRP | 0.0066
RRIRSRPPRLPRPRPRPVVRPRP | 0.367
RRIRSRPPRLPRPRPRPVWSPRP | 0.0126
RRIRSRPPRLPRPRPRPWAMPRP | 0.0981
RRIRSRPPRLPRPRPRPWATPRP | -0.102
RRIRSRPPRLPRPRPRPWCHPRP | -0.4
RRIRSRPPRLPRPRPRPWDLPRP | 0.056
RRIRSRPPRLPRPRPRPWFDPRP | -0.271
RRIRSRPPRLPRPRPRPWGFPRP | -0.0589
RRIRSRPPRLPRPRPRPWGGPRP | 0.27
RRIRSRPPRLPRPRPRPWHHPRP | -0.0809
RRIRSRPPRLPRPRPRPWIKPRP | -0.34
RRIRSRPPRLPRPRPRPWIRPRP | -0.207
RRIRSRPPRLPRPRPRPWKCPRP | -0.0598
RRIRSRPPRLPRPRPRPWKLPRP | -0.221
RRIRSRPPRLPRPRPRPWKVPRP | -0.173
RRIRSRPPRLPRPRPRPWMEPRP | -0.384
RRIRSRPPRLPRPRPRPWMRPRP | 0.709
RRIRSRPPRLPRPRPRPWNSPRP | -0.19
RRIRSRPPRLPRPRPRPWNVPRP | -0.346
RRIRSRPPRLPRPRPRPWPDPRP | -0.14
